pIC50, pKi: −log10 of the molar value. Where two headings read alike, the source gives them in different places. No end group written: not given here.
Key:
Alpha-chymotrypsin = Alpha-chymotrypsin (Bos taurus, UniProt P00766); assay: Inhibition of Alpha-chymotrypsin (AAPFpNA substrate); format: biochemical
Description: (§1) The activities of cathepsin G and Alpha-chymotrypsin were determined according to the method of Nakajima et al (9) using an analogue to HLE—succinyl-alanyl-alanyl-prolyl-phenylalanyl-p-nitroanilide (AAPFpNA, Sigma). For inhibition experiments, the highest concentration of the inhibitor was 1 μg/ml, representing a threefold molar concentration as compared to cathepsin G and Alpha-chymotrypsin.

plasmin = plasmin (Homo sapiens, UniProt P00747); assay: Inhibition of plasmin (TGPLpNA substrate); format: biochemical
Description: (§2) 100 μl inhibitor (1 μg/ml) and 100 μl trypsin (1 μg/ml) or plasmin (1 μg/ml) as appropriate were incubated for 30 minutes before adding the substrate, 0.1 mM tosyl-glycyl-prolyl-lysin-pNA (Boehringer Mannheim, FRG) in 0.05M HEPES, 0.12M NaCl, pH7.5.

human cathepsin G = biological target: T1, human cathepsin G (Homo sapiens, UniProt P08311); assay: Inhibition of cathepsin G (AAPFpNA substrate); format: biochemical; settings: substrate 0.5 mM AAPFpNA; inhibitor up to 1 μg/ml (threefold molar); n.i. = no inhibition
T1 sequence (P08311 21-255): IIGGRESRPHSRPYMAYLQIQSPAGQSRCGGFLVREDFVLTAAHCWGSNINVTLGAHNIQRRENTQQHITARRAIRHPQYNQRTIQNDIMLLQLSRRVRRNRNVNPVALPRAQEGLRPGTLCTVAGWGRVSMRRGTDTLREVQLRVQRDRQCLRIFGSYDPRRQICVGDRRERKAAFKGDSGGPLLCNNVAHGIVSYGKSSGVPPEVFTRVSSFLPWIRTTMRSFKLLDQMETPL
Description: as §1

human leukocyte elastase = biological target: T2, human leukocyte elastase (Homo sapiens, UniProt P08246); assay: Inhibition of human leukocyte elastase (AAPVpNA substrate; Ki by Green and Work); format: biochemical; settings: for pKi: method of Green and Work
T2 construct: purchased Elastin Products Corporation, Pacific, Mo., USA
T2 sequence (P08246 30-267): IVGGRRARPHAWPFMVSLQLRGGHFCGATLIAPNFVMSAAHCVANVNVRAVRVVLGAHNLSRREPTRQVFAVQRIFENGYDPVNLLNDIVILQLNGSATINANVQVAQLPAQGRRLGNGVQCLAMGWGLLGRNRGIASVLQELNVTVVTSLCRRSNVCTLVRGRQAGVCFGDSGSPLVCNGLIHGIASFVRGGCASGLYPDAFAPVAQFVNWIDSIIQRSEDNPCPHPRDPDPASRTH
Description: The potency of polypeptides of the present invention to act as an elastase inhibitor was determined by the ability of a compound of the invention to inhibit the action of human leukocyte elastase (HLE) on a low molecular weight peptide substrate. The potency of an inhibitor was evaluated by obtaining a kinetic determination of the dissociation constant, Ki, of the complex formed from the interaction of th inhibitor with HLE. The substrate used was the anilide methoxysuccinyl-alanyl-alanyl-prolyl-valine-p-nitroanilide as described by K. Nakajima et al. in the J. Biol. Chem., 254: 4027-4032 (1979) and by T. Teshima et al. in J. Biol Chem., 257: No 9, 5085-5091 (1982). The HLE enzyme used in these studies may be obtained from Elastin Products of St. Louis, Mo. or can be purified according to B. R. Viscarello et al. in Preparative Biochemistry, Vol. 13, pages 57-67, (1983).
The activity of human leukocyte elastase (EC 3.4.21.37) was determined according to the method of Nakajima et al (7). Inhibition of HLE was determined by the use of the synthetic peptide methoxy-succinyl-alanyl-alanyl-prolyl-valyl-p-nitro anilide (AAPVpNA, Sigma).
Sample (100 μl) and 100 μl HLE (200 ng/ml; Elastin Products Corporation, Pacific, Mo., USA) in assay buffer (0.1M, HEPES, 0.5M NaCl, 10% DMSO, pH 7.5) were incubated for 30 minutes at room temperature. Substrate (800 μl 0.5 mM) in assay buffer was then added.
Changes in absorbance at 405 nm were followed up to 1 hour and the %-inhibition was calculated from the remaining activity and controls. The dissociation constant (Ki) was determined according to the method of Green and Work (8) in the same system, using 2 mM substrate and (1 μg/ml) HLE (final concentrations).

Acid stability = format: physicochemical
[1] = biological target: porcine pancreatic elastase (Sus scrofa, UniProt P00772); assay: Inhibition of porcine pancreatic elastase (AAPV-AFC fluorogenic substrate); format: biochemical
Description: The activity of porcine pancreatic elastase (E.C. 3.4.21.36) was determined using the flourogenic substrate methoxy-succinyl-alanyl-alanyl-prolyl-valyl-trifluoromethylcoumarine (AAPV-AFC, Bachem, Bubendorf, Switzerland).
Elastase (100 μl) and inhibitor (100 μl) were pre-incubated for 30 minutes. A solution of substrate (1.8 ml of a 0.1 mM solution) was then added. Flourescence, Ex 400 Em 505, was followed and the %-inhbition was calculated from the initial activity of samples and controls. The dissociation constant (Ki) was determined according to the method of Green and Work (8).

trypsin = assay: Inhibition of trypsin (TGPLpNA substrate); format: biochemical
Description: as §2

Isoelectric focussing = format: physicochemical; settings: silver stain and enzymatic detection in gel slices
Description: Isoelectric focussing was performed by using Servalyt Precoates pH 3-10 and Test-Mix 9 (Serva). Prefocussing was for 30 minutes at 3 watts, and silver stain (Sigma) or Comassie blue R stain was used according to Serva instructions. In parallel, the precoates were sliced and eluted to localise inhibitory active peptides. Approximately 1 mm slices were eluted with 100 μl acetonitrile. The eluates were allowed to dry and were resolved in 100 μl of buffer (0.1M HEPES, 0.5M NaCl, 1% BSA, pH 7.5) containing 20 ng HLE. After 30 minutes incubation the remaining HLE activity was determined.

Proteinase 3 = biological target: T3, Proteinase 3 (Homo sapiens, UniProt P24158); assay: Inhibition of proteinase 3 (elastin-FITC hydrolysis); format: biochemical; settings: 37° C., 4 hours, pH 8.5, read-out: IC50 against proteinase 3
T3 construct: Proteinase 3 was purified from human polymorphonuclear leukocytes using the method of Ludemann; from tissue; host or cells: human polymorphonuclear leukocytes
T3 sequence (P24158 28-256): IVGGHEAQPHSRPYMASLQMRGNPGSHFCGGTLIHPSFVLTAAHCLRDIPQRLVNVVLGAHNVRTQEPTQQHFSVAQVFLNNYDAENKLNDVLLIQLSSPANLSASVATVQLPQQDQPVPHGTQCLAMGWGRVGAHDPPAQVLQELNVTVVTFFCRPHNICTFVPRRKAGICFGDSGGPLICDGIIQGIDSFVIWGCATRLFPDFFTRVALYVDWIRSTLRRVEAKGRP
Description: Proteinase 3 was purified from human polymorphonuclear leukocytes using the method of Ludemann reported in J Exp Med 171, 357-362, 1990. The absence of human leukocyte elastase and cathespin G was confirmed by the lack of activity of the proteinase 3 preparation with the substrates methoxy-succinyl-ala-ala-pro-val-p-nitroanilide (AAPVpNA), and succinyl-ala-ala-phe-p-nitroanilide respectively according to the method of Nakajima (7).
The elastinolytic activity was determined by hydrolysis of bovine ligamentum nuchae elastin-FITC (Elastin Products Corporation, USA).
The proteinase 3 preparation (1 μl) was preincubated at 37° C. for 30 minutes with the elastase inhibitor of formula I (0-1 μg) in carbonate buffer (50 μl, 0.1M), NaN3 (0.02%), Brij 35 (0.01%), pH8,5. Elastin-FITC (1 mg) in carbonate buffer (100 μl, 0.1M), NaN3 (0.02%), Brij 35 (0.01%), pH8.5. The mixture was incubated at 37° C. with gentle agitation for 4 hours, and then centrifuged at 6000×g. The supernatants were diluted 1:20 and the fluorescence of the solubilised elastin-FITC was determined using a Perkin Elmer LS 50 microtiterplate reader at Ex489 nm, Em 513 nm. Fluorescence was corrected by enzyme free controls and inhibition expressed in % of inhibitor free controls.

[2] = at least threefold excess of the inhibitor
[3] = substrate 0.1 mM TGPLpNA, inhibitor 1 μg/ml, n.i. = no inhibition

Sequence of plasmin (P00747 581-810 limits assumed, species assumed): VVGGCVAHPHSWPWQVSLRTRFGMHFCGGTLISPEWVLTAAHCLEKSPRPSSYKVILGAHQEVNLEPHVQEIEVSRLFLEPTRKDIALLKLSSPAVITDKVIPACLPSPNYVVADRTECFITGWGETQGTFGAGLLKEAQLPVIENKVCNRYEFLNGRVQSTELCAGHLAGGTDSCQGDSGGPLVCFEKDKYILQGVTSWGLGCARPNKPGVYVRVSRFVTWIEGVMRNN
Sequence of plasmin (P00747 97-580 partner limits assumed, species assumed): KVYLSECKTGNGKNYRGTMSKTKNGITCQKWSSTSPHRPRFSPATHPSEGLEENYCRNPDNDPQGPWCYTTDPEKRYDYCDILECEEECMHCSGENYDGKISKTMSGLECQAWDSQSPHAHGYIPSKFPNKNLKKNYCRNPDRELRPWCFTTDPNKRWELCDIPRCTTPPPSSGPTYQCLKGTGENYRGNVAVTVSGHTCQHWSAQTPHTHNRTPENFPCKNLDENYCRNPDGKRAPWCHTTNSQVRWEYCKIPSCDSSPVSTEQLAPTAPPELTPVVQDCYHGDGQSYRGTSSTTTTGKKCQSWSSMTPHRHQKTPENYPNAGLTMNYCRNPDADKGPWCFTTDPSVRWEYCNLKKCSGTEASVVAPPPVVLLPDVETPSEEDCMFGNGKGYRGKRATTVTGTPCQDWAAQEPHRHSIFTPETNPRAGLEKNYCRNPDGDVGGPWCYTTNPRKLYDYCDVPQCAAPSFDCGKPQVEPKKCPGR
Sequence of porcine pancreatic elastase (P00772 27-266): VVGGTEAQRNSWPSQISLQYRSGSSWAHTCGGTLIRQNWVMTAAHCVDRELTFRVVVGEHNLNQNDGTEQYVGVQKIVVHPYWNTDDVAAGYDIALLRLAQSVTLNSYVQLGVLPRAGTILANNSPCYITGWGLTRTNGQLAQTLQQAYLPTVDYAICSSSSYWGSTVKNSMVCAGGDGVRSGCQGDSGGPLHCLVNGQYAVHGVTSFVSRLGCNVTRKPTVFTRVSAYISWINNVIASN

AQEPVKGPVSTKPGSCPIILIRCAMLNPPNRCLKDTDCPGIKKCCEGSCGMACFVPQ (cysteine pairing not given here) [prominent inhibitor]
inhibition of Alpha-chymotrypsin (in words) (Alpha-chymotrypsin; [2]): neither Alpha- chymotrypsin, nor trypsin and plasmin were significantly inhibited
DISSOCIATION CONSTANT (Ki), Alpha-chymotrypsin (Alpha-chymotrypsin; substrate 0.5 mM AAPFpNA, inhibitor up to 1 μg/ml (threefold molar), n.i. = no inhibition): n.i.
inhibition of plasmin (in words) (plasmin; [2]): neither Alpha- chymotrypsin, nor trypsin and plasmin were significantly inhibited
DISSOCIATION CONSTANT (Ki), plasmin (plasmin; [3]): n.i.
DISSOCIATION CONSTANT (Ki), human cathepsin G (human cathepsin G): n.i.
inhibition of HLE (in words) (human leukocyte elastase): found to inhibit
pKi (human leukocyte elastase; Poly LC-HPLC peak compared with inhibitor from human skin, read-out: Ki, titrated against HLE): 9.48
pKi (human leukocyte elastase; substrate 2 mM AAPVpNA, 1 μg/ml HLE, read-out: DISSOCIATION CONSTANT (Ki), human leukocyte elastase): 9.52
acid stability (Acid stability): acid stable
inhibition of porcine pancreatic elastase (in words) [1]: found to inhibit
pKi ([1]; substrate 0.1 mM AAPV-AFC, method of Green and Work, read-out: DISSOCIATION CONSTANT (Ki), porcine pancreatic elastase): 9.00
inhibition of trypsin (in words) (trypsin; [2]): neither Alpha- chymotrypsin, nor trypsin and plasmin were significantly inhibited
DISSOCIATION CONSTANT (Ki), trypsin (trypsin; [3]): n.i.
isoelectric point (Isoelectric focussing): 9.7 pH
pIC50 (Proteinase 3): 8.02
